These results are taken from patent US20240156870A1 (NATIONAL RESEARCH COUNCIL OF CANADA, published 2024).

Like-named read-outs stand apart in the source and are kept apart here.

Experiment [1] addresses recombinant 6xHis-tagged human EGFR ectodomain (human) (UniProt P00533). The experiment in a line: SPR multi-cycle, VHH over amine-coupled EGFR ectodomain.
The target of experiment [2] is recombinant human EGFRvIII ectodomain (human) (UniProt P00533). The experiment in a line: SPR multi-cycle, VHH over amine-coupled EGFRvIII ectodomain.
For experiment [3], the target named is T1, human EGFR-Fc fusion protein (human, UniProt P00533 25-645).
T1 construct: Bought; not shown: Fc part of the bought fusion
The experiment in a line: SPR single-cycle, VHH over amine-coupled human EGFR-Fc.

Experiment [4] has as its target T2, rhesus EGFR-Fc fusion protein (rhesus, UniProt P55245 25-645).
T2 construct: Bought; not shown: Fc part of the bought fusion
The experiment in a line: SPR single-cycle, VHH over amine-coupled rhesus EGFR-Fc.

For experiment [5], the target named is T3, recombinant 6xHis-tagged human EGFR ectodomain (human, UniProt P00533 25-645).
T3 construct: extracellular domain; Bought; also called recombinant human EGFR; EGFR extracellular domain; not shown: 6xHis tag
The experiment in a line: SPR multi-cycle, VHH over amine-coupled EGFR ectodomain.

In experiment [6] the target is T1, human EGFR-Fc fusion protein. The experiment in a line: SPR, VHH over human EGFR-Fc.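 Note: Single-cycle kinetics on Biacore T200 at 25 °C in HBS-EP, monomeric VHHs at 0.6–50 nM flowed over immobilized EGFR, 180 s association, 600 s dissociation, ethanolamine-blocked reference cell.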 For orientation: Surface plasmon resonance follows binding to a sensor surface in real time, without labels.
Experimental: (§1) In the second SPR experiment, single-cycle kinetic analyses were performed on a Biacore™ T200 instrument (GE Healthcare) at 25° C. in HBS-EP buffer. […] An ethanolamine-blocked flow cell served as the reference. Monomeric VHHs at concentrations ranging from 0.6 to 50 nM were injected over the EGFR surfaces in HBS-EP buffer at a flow rate of 40 μL/min. The contact time was 180 s and the dissociation time was 600 s. The EGFR surfaces were regenerated using a 10 s pulse of 10 mM glycine, pH 1.5.
The target of experiment [7] is T2, rhesus EGFR-Fc fusion protein. The experiment in a line: SPR single-cycle, VHH over amine-coupled rhesus EGFR-Fc. The source holds these as a separate data set.
Experimental: as §1
For experiment [8], the target named is T4, mouse EGFR-Fc fusion protein (mouse, UniProt Q01279 25-647).
T4 construct: Bought; not shown: Fc part of the bought fusion
The experiment in a line: ELISA, VHH titrated from about 0.5 to 1000 ng/mL, OD 450 nm. On the technique in general: ELISA stands for enzyme-linked immunosorbent assay.

For experiment [9], the target named is T1, human EGFR-Fc fusion protein. The experiment is described as above.
Experiment [10] addresses T2, rhesus EGFR-Fc fusion protein. The experiment is described as above.
The target in experiment [11] is T5, human EGFR, native, on the cell surface (human, UniProt P00533 25-1210).
T5 construct: MCF7 is EGFR-low and serves as low-expression control; also called native cell-surface EGFR
The experiment in a line: Mirrorball microplate cytometry, serial dilution, AF488 anti-human Fc; the cell line is not named in the legend of FIG. 5D (paragraph 463 treats it with the MDA-MB-468 assay of FIG. 5B).

Experiment [12] concerns the target T3, recombinant 6xHis-tagged human EGFR …. The experiment in a line: SPR (value of Table 2 repeated in Table 6).
Experimental: (§2) In the first SPR experiment, multi-cycle kinetic analyses were performed on a Biacore™ 3000 instrument (GE Healthcare) at 25° C. in HBS-EP buffer [10 mM HEPES, pH 7.4, containing 150 mM NaCl, 3 mM EDTA and 0.005% (w/v) surfactant P20]. […] An ethanolamine-blocked flow cell served as the reference. Monomeric VHHs at concentrations ranging from 0.1 to 100 nM were injected over the EGFR and EGFRvIII surfaces in HBS-EP buffer at a flow rate of 20 μL/min. […] Contact times were 180-300 s and dissociation times were 300-600 s.
Experiment [13] addresses T5, human EGFR, native, on the cell surface. The experiment in a line: Mirrorball microplate cytometry, adherent MDA-MB-468 cells.
Experimental: For Mirrorball® experiments, cells were dissociated from flasks using Accutase® solution, washed in Hank's Balanced Salt Solution (HBSS) and then ˜5000 cells in growth medium were plated in each rat tail collagen-coated well of a Nunc™ MicroWell 96-well optical bottom plate (Thermo Fisher). […] The cells were washed with LCIB and secondary detection reagents (40 pg/ml PE-conjugated streptavidin or 30 pg/ml AF488-conjugated donkey anti-human IgG in LCIB containing 1% BSA) were added as appropriate to each well for 1 h at 4° C. The cells were washed with LCIB and stained with 1 M DRAQ5™ for 10 min at 4° C. After a final wash with LCIB, data were acquired on a Mirrorball® microplate cytometer (TTP Labtech, Melbourn, U.K.) and analyzed using Cellista software (TTP Labtech).
Experiment [14] concerns the target T4, mouse EGFR-Fc fusion protein. The experiment in a line: ELISA, VHH titrated from about 0.5 to 1000 ng/mL, OD 450 nm. This is another data set of the same source.
The target in experiment [15] is T3, recombinant 6xHis-tagged human EGFR …. The experiment in a line: SPR multi-cycle, EGFR ectodomain over amine-coupled NRC-sdAb032.
Experimental: as §2
Experiment [16] concerns the target T4, mouse EGFR-Fc fusion protein. The experiment in a line: SPR single-cycle, VHH over amine-coupled mouse EGFR-Fc.
Experimental: as §1
The target is the same in experiment [17]. The experiment in a line: ELISA, VHH titrated from about 0.5 to 1000 ng/mL, OD 450 nm. The source holds these as a separate data set.
In experiment [18] the target is T1, human EGFR-Fc fusion protein. Described as above. This is another data set of the same source.
Experiment [19] deals with T2, rhesus EGFR-Fc fusion protein. The description is as above. This is another data set of the same source.
Experiment [20] deals with T1, human EGFR-Fc fusion protein. Described as above. This is another data set of the same source.
Experiment [21] deals with T2, rhesus EGFR-Fc fusion protein. The experiment is described as above. This is another data set of the same source.

Take EG2 VHH: the results for the equilibrium dissociation constant (Kd) in experiment [1], in experiment [2] and in [3] were 19.1 nM, 14.6 nM and 11.1 nM, respectively. Further, the kon (as a rule, a measure of how fast the partners come together) in experiment [2] was found to be 1.2e+06 M⁻¹ s⁻¹; in [3] it was 850000 M⁻¹ s⁻¹.

B1: NRC-sdAb022 (VHH)
VHH: QVQLVESGGGLVQPGGSLKLSCAVSGFAFERNGVSWYRQAPGKQREFVAVISSGTTTYKDSVKGRFTISRDNTRNTAYLQMNNLKPEDTAVYYCNLVPPTPYWGQGTQVTVSS
notes: Monomeric llama VHH; in ELISA a version with biotin acceptor peptide and 6xHis was used; Stands for the 'NRC-sdAb022-family' in the cross-species and binning sentences; also called EGFR2; NRC-sdAb022-family VHHs; not shown: C-terminal c-Myc and 6xHis tags
Take B1: the koff (as a rule, a measure of how fast the partners let go of each other) in experiment [4] is 0.0017 s⁻¹; in experiment [5], 0.00067 s⁻¹; in [6], 0.0022 s⁻¹; in experiment [2] it was 0.00077 s⁻¹; in [3] it was 0.0022 s⁻¹. For the same molecule, the kon in [4] was 85000 M⁻¹ s⁻¹; in experiment [5], 400000 M⁻¹ s⁻¹; in [6], 250000 M⁻¹ s⁻¹; in [2], 290000 M⁻¹ s⁻¹; in [3], 250000 M⁻¹ s⁻¹. The Kd – broadly, the free concentration of one partner at which half of the binding sites on the other are occupied at equilibrium, for simple one-to-one binding – in experiment [5] amounted to 1.7 nM; in experiment [6], 8.9 nM; in experiment [2], 2.6 nM; in experiment [7], 19.6 nM; in experiment [3] it was 8.9 nM. The binding result in experiment [8] is recorded as “no binding (tested: 1000 ng/mL)”. Further, the EC50 (read off the curve) (as a rule, the concentration giving half of the maximal effect) in [9] is approximately 0.003 µg/mL; in experiment [10], approximately 0.004 µg/mL.

B2: NRC-sdAb032/NRC-sdAb022-Fc (Fc fusion)
chain 1: QVKLEESGGGLVQPGGSLRLSCSASGSISSISVMGWYRQAPGKQRELVARITSGGISNYVDSVKGRFTISGDSAKNIVYLQMNSLKPEDTAVYYCYMYVHVGYWVDYWGQGTQVTVSS
chain 2: QVQLVESGGGLVQPGGSLKLSCAVSGFAFERNGVSWYRQAPGKQREFVAVISSGTTTYKDSVKGRFTISRDNTRNTAYLQMNNLKPEDTAVYYCNLVPPTPYWGQGTQVTVSS
notes: Member of the group m26; also called NRC-sdAb032/022-Fc; biparatopic heterodimeric VHH/VHH-Fc
Turning to B2, in experiment [11], the EC50 (commonly the concentration that produces a half-maximal response) stood at 1.6 nM.

B3: NRC-sdAb027 (VHH)
VHH: QVKLEESGGGLVQPGGSLKLSCAVSGFAFERNGVSWYRQAPGKQREFVAVISSGTTTYKDSVKGRFTISRDNTRNTAYLQMNNLKPEDTAVYYCNLIPPTPYWGQGTQVTVSS
notes: Monomeric llama VHH; also called EGFR7; not shown: C-terminal c-Myc and 6xHis tags
As for B3, in [5], the Kd was found to be 1.6 nM, the koff is 0.00079 s⁻¹ and the kon came out at 510000 M⁻¹ s⁻¹. Moreover, in [2], the Kd stood at 2.3 nM, the koff stood at 0.00086 s⁻¹ and the kon amounted to 380000 M⁻¹ s⁻¹. Moreover, in [12], the Kd amounted to 1.6 nM.

B4: NRC-sdAb032-Fc (Fc fusion)
chain: QVKLEESGGGLVQPGGSLRLSCSASGSISSISVMGWYRQAPGKQRELVARITSGGISNYVDSVKGRFTISGDSAKNIVYLQMNSLKPEDTAVYYCYMYVHVGYWVDYWGQGTQVTVSS
notes: Bivalent VHH-human IgG1 Fc fusion from HEK293-6E cells; also called homodimeric NRC-sdAb032-Fc; not shown: human IgG1 Fc
Take B4: the EC50 in [13] is 0.5 nM; in [11] it was 0.9 nM.

B5: NRC-sdAb032 (VHH)
VHH: QVKLEESGGGLVQPGGSLRLSCSASGSISSISVMGWYRQAPGKQRELVARITSGGISNYVDSVKGRFTISGDSAKNIVYLQMNSLKPEDTAVYYCYMYVHVGYWVDYWGQGTQVTVSS
notes: Monomeric llama VHH; in ELISA a version with biotin acceptor peptide and 6xHis was used; also called EVE46; not shown: C-terminal c-Myc and 6xHis tags
For the molecule B5, the koff was 0.0039 s⁻¹ in [4], 0.0025 s⁻¹ in experiment [6], 0.0025 s⁻¹ in experiment [3] and 0.0013 s⁻¹ in experiment [15]. For the same molecule, the kon in experiment [4] came out at 480000 M⁻¹ s⁻¹; in experiment [6] it was 360000 M⁻¹ s⁻¹; in experiment [3] it was 360000 M⁻¹ s⁻¹; in [15], 100000 M⁻¹ s⁻¹. For the same molecule, the Kd was determined as 6.9 nM in [6], 8.1 nM in [7], 6.9 nM in experiment [3] and 12.9 nM in experiment [15]. Besides, in experiment [14], the binding result is given as “no binding (tested: 1000 ng/mL)”.

B6: NRC-sdAb033 (VHH)
VHH: QVQLVESGGGLVQPGGSLRLSCAASESIDSIYVMQWYRQAPEKPRDVVATLTPGGGSYYPEAVLGRFTISRDDAKNTVYLQMNSLKPEDTAVYYCNAFHRLRGTHYWGQGTQVTVSS
notes: Monomeric llama VHH; in ELISA a version with biotin acceptor peptide and 6xHis was used; also called EVE48; not shown: C-terminal c-Myc and 6xHis tags
On to B6, for which the koff was determined as 0.00011 s⁻¹ in experiment [4]; 0.00017 s⁻¹ in experiment [5]; 0.00016 s⁻¹ in experiment [6]; 0.00028 s⁻¹ in experiment [16]; 0.00016 s⁻¹ in experiment [3]. Further, the kon amounted to 110000 M⁻¹ s⁻¹ in experiment [4]; 150000 M⁻¹ s⁻¹ in [5]; 90000 M⁻¹ s⁻¹ in experiment [6]; 92000 M⁻¹ s⁻¹ in experiment [16]; 90000 M⁻¹ s⁻¹ in experiment [3]. Further, the Kd was determined as 1.1 nM in experiment [5]; 1.8 nM in experiment [6]; 3.1 nM in experiment [16]; 1 nM in experiment [7]; 1.8 nM in [3]. The concentration for a half-maximal effect (EC50 (read off the curve)) in experiment [17], in [18] and in experiment [19] was approximately 0.02 µg/mL each time.

B7: NRC-sdAb032/NRC-sdAb033-Fc (Fc fusion)
chain 1: QVKLEESGGGLVQPGGSLRLSCSASGSISSISVMGWYRQAPGKQRELVARITSGGISNYVDSVKGRFTISGDSAKNIVYLQMNSLKPEDTAVYYCYMYVHVGYWVDYWGQGTQVTVSS
chain 2: QVQLVESGGGLVQPGGSLRLSCAASESIDSIYVMQWYRQAPEKPRDVVATLTPGGGSYYPEAVLGRFTISRDDAKNTVYLQMNSLKPEDTAVYYCNAFHRLRGTHYWGQGTQVTVSS
notes: Member of the group m26; also called NRC-sdAb032/033-Fc; biparatopic heterodimeric VHH/VHH-Fc
On to B7, for which, in [11], the EC50 was 1.8 nM.

B8: NRC-sdAb028 (VHH)
VHH: EVQLVESGGGLVQPGGSLRLSCTVSGSFFSRDAMGWHRQAPGKQREMVAGISSGGLSNHAESVKGRFTISRDNSKNTVYLQMNNLKPEDTAVYYCSIYEDGVWTSWGQGTQVTVSS
notes: Monomeric llama VHH; in ELISA a version with biotin acceptor peptide and 6xHis was used; also called EGFR10; not shown: C-terminal c-Myc and 6xHis tags
As for B8, the Kd amounted to 9 nM in experiment [5]; 6 nM in [6]; 11.6 nM in experiment [16]; 8.6 nM in experiment [2]; 6 nM in experiment [3]; 9 nM in [12]. In addition, the koff in experiment [5] came to 0.00075 s⁻¹; in experiment [6] it was 0.00055 s⁻¹; in experiment [16] it was 0.0075 s⁻¹; in experiment [2], 0.00084 s⁻¹; in [3], 0.00055 s⁻¹. Further, the on-rate constant (kon) in experiment [5] worked out at 84000 M⁻¹ s⁻¹; in experiment [6] it was 92000 M⁻¹ s⁻¹; in [16] it was 650000 M⁻¹ s⁻¹; in [2] it was 98000 M⁻¹ s⁻¹; in experiment [3], 92000 M⁻¹ s⁻¹. Also, in [20], the “EC50 (read off the curve)” value is approximately 0.007 µg/mL. In addition, in experiment [21], the binding result is “no binding (tested: 1000 ng/mL)”.

B9: NRC-sdAb032/NRC-sdAb028-Fc (Fc fusion)
chain 1: QVKLEESGGGLVQPGGSLRLSCSASGSISSISVMGWYRQAPGKQRELVARITSGGISNYVDSVKGRFTISGDSAKNIVYLQMNSLKPEDTAVYYCYMYVHVGYWVDYWGQGTQVTVSS
chain 2: EVQLVESGGGLVQPGGSLRLSCTVSGSFFSRDAMGWHRQAPGKQREMVAGISSGGLSNHAESVKGRFTISRDNSKNTVYLQMNNLKPEDTAVYYCSIYEDGVWTSWGQGTQVTVSS
notes: Member of the group m26; also called NRC-sdAb032/028-Fc; biparatopic heterodimeric VHH/VHH-Fc
With B9, the EC50 in experiment [11] turned out to be 2.1 nM.

B10: NRC-sdAb021 (VHH)
VHH: QVQLVESGGGLVQPGGSLRLSCSVSLSDFGSKHLAWHRQAPGKEREWVALIFSSGATNYANSVKGRFTISRDNSKNTVYLQMNSLKPEDTAVYYCNLVPPSPAWGQGTQVTVSS
notes: Monomeric llama VHH purified from E. coli periplasm; also called EGFR1; not shown: C-terminal c-Myc and 6xHis tags
For the molecule B10, in [5], the Kd came out at 38.5 nM, the koff was determined as 0.012 s⁻¹ and the kon was found to be 310000 M⁻¹ s⁻¹. In [2], the Kd amounted to 40.4 nM, the dissociation rate constant (koff) stood at 0.0098 s⁻¹ and the kon was 240000 M⁻¹ s⁻¹. In experiment [12], the dissociation constant Kd turned out to be 38.5 nM.
